What was measured:
[1] = target: anti-σ factor (ELI_10225) from Erythrobacter litoralis HTCC2594 (Erythrobacter litoralis HTCC2594) (UniProt Q2N854); assay: SEC-MALS
[2] = target: the molecule itself; assay: SEC-MALS

| Molecule | binding result [2] | other results |
| --- | --- | --- |
| phospho-EL_PhyR (EL_PhyR phosphorylated by EL368 and ATP) (from UniProt Q2N856 1-266) (natural protein) |  | stoichiometry N [1]: 1 |
| EL362, LOV-histidine kinase from Erythrobacter litoralis HTCC2594 (wild type, Arg 150) (enzyme, UniProt Q2N9L9 1-362, looked up) MDDQPTTRANRVGHPESSRQAYSSESGATHGSLAFPGASGLLFEQAMAQTRMAVCLTDPHQPDHPIVFCNAAFERLTGYEEKDIIGRNCRFLQGARTDESQVARIRDALAKEEVAVVELLNYRKDGSTFWNALHLGPIYDESGKLKYFFRSQWDVTDIHEARAEQRHAKAMAREVSHRLKNVFSVIAGIVNITGRSMDARPVASRINERVQALGRAYEPTLDEAFMGTIEVGQAIRAILAPYDPEGDRVSLEGNGVRTEPNAISSIGLTLHELASNAIKYGALSNETGTIDVSWHHERDDHDRRRLVIDWKESGGPTIEGPPETGGTGFDISETLLSYSNGTLEKRWDRDGLFVRIAIPIEQ | binds |  |
| EL362(R150G) (enzyme, Erythrobacter litoralis HTCC2594, UniProt Q2N9L9 1-362, looked up) MDDQPTTRANRVGHPESSRQAYSSESGATHGSLAFPGASGLLFEQAMAQTRMAVCLTDPHQPDHPIVFCNAAFERLTGYEEKDIIGRNCRFLQGARTDESQVARIRDALAKEEVAVVELLNYRKDGSTFWNALHLGPIYDESGKLKYFFGSQWDVTDIHEARAEQRHAKAMAREVSHRLKNVFSVIAGIVNITGRSMDARPVASRINERVQALGRAYEPTLDEAFMGTIEVGQAIRAILAPYDPEGDRVSLEGNGVRTEPNAISSIGLTLHELASNAIKYGALSNETGTIDVSWHHERDDHDRRRLVIDWKESGGPTIEGPPETGGTGFDISETLLSYSNGTLEKRWDRDGLFVRIAIPIEQ | binds |  |
| EL368, LOV-histidine kinase from Erythrobacter litoralis HTCC2594 (enzyme, UniProt Q2NCA3 1-360, looked up) MPLKGEISAQAGREFDTSRLDLRAIIDPRDLRVDPTRLFLETTQQTRLAICISDPHQPDCPVVYVNQAFLDLTGYAREEIVGRNCRFLQGADTDPEQVRKLREGIAAERYTVVDLLNYRKDGIPFWNAVHVGPIYGEDGTLQYFYGSQWDITDIVAERRKAETQRRIAAELRHRTGNIFAVLNAIIGLTSRRERDVSEFADKLSERVSALASAHRMTIMDEPDQEAVAIDDLVTGVMKPYRNRFAERVTTSGPKIELGPRSVTALGLALHELATNAVKYGALSVDAGRVEISWSREDGDVTLVWQEQGGPTVSQEQSEPVKGNGTMLIDGMIASLTGSIERDFAAAGLQAKITLPVHQPE |  | stoichiometry N [2]: 2 |

From article PMC3830641 (Biochemistry, 2013)
